Data from patent publication US20120178908A1 (Novo Nordisk, published 2012).
* marks the point of attachment. Biotin = O=C1N[C@H]2[C@H](CS[C@H]2CCCCC(=O)*)N1; AEEA = NCCOCCOCC(=O)O

Key:
hTLT-1 ECD-HPC4 M91A = target: T1, hTLT-1 ECD-HPC4 M91A (human, UniProt Q86YW5 16-162); assay: SPR (ProteOn), mAb captured by anti-hFc, 100 nM mutant
T1 construct: As m27; also called Ala mutant 24
T1 chain: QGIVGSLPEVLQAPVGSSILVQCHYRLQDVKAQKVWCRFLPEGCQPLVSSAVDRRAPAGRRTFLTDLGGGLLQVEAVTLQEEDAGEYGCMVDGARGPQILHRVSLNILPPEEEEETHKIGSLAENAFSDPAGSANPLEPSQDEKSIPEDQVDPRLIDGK
Procedure: Anti-hFc Polyclonal antibody was immobilized onto separate flow cells of a GLM sensor chip using a 1:1 mixture of 0.4 M EDAC [1-ethyl-3-(3-dimethylaminopropyl) carbodiimide hydrochloride] and 0.1 M Sulfo-NHS [N-hydroxysulfosuccinimide]. Each anti-body was diluted in 10 mM sodium acetate pH 5.0 to a concentration of […], and was immobilized to an individual flow cell at 30 μl/min for 240s. The antibodies were immobilized to flow cells A1-A6 (horizontal direction). After immobilization, the active sites on the flow cell were blocked with 1 M ethanolamine. The final immobilization level of capture antibody typically ranged from approximately 9,000 to 10,000 RU in one experiment. Capture of the anti-TLT1 antibodies 0197-0000-0023, 0197-0000-0051, 0197-0000-0061 and 0197-0000-0062 was conducted by diluting to […] into HBS-EP buffer (10 mM HEPES, 150 mM NaCl, 3 mM EDTA, 0.05% surfactant P20, pH 7.4) and injected at 30 μl/min for 60s in vertical direction, creating interspot reference points with only anti-human Fc antibodies. The final capture level of test antibodies typically ranged from approximately 200 to 300 RU in one experiment. […] Each hTLT-1 ECD-HPC4 protein was diluted to 100 nM, based on the calculated average Mw, into HBS-EP buffer and injected at 30 μl/min for 240s. […]

[1] = target: T2, TLT1 (human TLT-1, reagent of the SPR studies, source NN) (human, UniProt Q86YW5 16-162, limits assumed); assay: SPR (Biacore), mAb captured via anti-human Fc mAb, TLT1 as analyte
T2 sequence: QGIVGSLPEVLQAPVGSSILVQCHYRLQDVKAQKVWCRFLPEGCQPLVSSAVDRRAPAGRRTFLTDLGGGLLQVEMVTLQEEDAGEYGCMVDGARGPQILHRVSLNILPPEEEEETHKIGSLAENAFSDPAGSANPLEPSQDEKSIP
Procedure: The mAbs of interest were either immobilized directly to a CM5 chip or by capture via a human Fc capture mAb immobilized to a CM5 chip.
Capture via human Fc mAb: Human Fc mAb was immobilised to approx 10.000 RU. The mAb of interest was added (approx 100 nM). Two-fold dilutions of TLT1 from 200 nM to 0.2 nM were tested. Running and dilution buffer: 10 mM HEPES, 150 mM, 0.005% p20, pH 7.4. Regeneration was obtained in 3 M MgCl₂

[2] = target: T3, biotinylated 20mer TLT-1 stalk peptide 10 (N-terminal biotin via 8-amino-3,6-dioxaoctanoic acid (bio-Oeg)); assay: peptide-walk ELISA, biotin-peptide on streptavidin plate, triple determination
T3 construct: also called well A10
T3 peptide: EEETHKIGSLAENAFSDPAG
Procedure: (§1) Epitope mapping by peptide walk. The peptide walking ELISA defined the minimal binding region of the peptide. This was established by coating biotinylated peptides with one residue frameshift in the stalk region of TLT-1 in streptavidin plates followed by binding of the antibody of interest (mAb 0061). A secondary antibody was added for detection and binding was measured at 450 nm. Positive control: binding to biotinylated TLT-1.
(§2) 1) 20mer peptide mapping with one residue frameshift (20,1) (see materials) 2) 16mer peptide mapping with one residue frameshift (16,1) (see materials) [0687] 1. Plate was prre-washed 3× with 250 μl wash buffer [0688] 2. 100 μl Biotinylated peptide-solution was added (from Masterplate 10000× diluted, one peptide pr well) [0689] 3. Incubated at RT for 1 hour or +5° C. over night [0690] 4. Washed 3× with wash buffer [0691] 5. 100 μl Primary antibody was added (dilution see above) [0692] 6. Incubated at RT for 1 hour [0693] 7. Washed 3× with wash buffer [0694] 8. 100 μl Secondary antibody was added (dilution see above) [0695] 9. Incubated at RT for 1 hour [0696] 10. Washed 3× with wash buffer [0697] 11. 100 μl Substrate/Develop buffer was added (Reaction time 3 min) [0698] 12. 100 μl 2M H3PO4 was added [0699] 13. Endpoint was read at 450 nm

[3] = target: T4, biotinylated 16mer hTLT-1 stalk peptide 38 (SMILES …); assay: as above
T4 construct: also called well D 2
T4 peptide: {Biotin-AEEA}-EETHKIGSLAENAFSD-NH2
Procedure: as §1, §2

[4] = target: T5, biotinylated 20mer TLT-1 stalk peptide 7 (N-terminal biotin via 8-amino-3,6-dioxaoctanoic acid (bio-Oeg)); assay: as above
T5 construct: also called well A 7
T5 peptide: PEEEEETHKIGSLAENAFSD
Procedure: as §1, §2

[5] = target: T6, biotinylated 20mer TLT-1 stalk peptide 13 (N-terminal biotin via 8-amino-3,6-dioxaoctanoic acid (bio-Oeg)); assay: as above
T6 construct: also called well B 1
T6 peptide: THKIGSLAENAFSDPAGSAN
Procedure: as §1, §2

[6] = target: T7, biotinylated 16mer hTLT-1 stalk peptide 36 (SMILES …); assay: as above
T7 construct: also called well C12
T7 peptide: {Biotin-AEEA}-EEEETHKIGSLAENAF-NH2
Procedure: as §1, §2

[7] = target: T8, biotinylated 16mer hTLT-1 stalk peptide 40 (SMILES …); assay: as above
T8 construct: also called well D 4
T8 peptide: {Biotin-AEEA}-THKIGSLAENAFSDPA-NH2
Procedure: as §1, §2

binding result (hTLT-1 ECD-HPC4 M91A): binds | Kd [1]: 3.75 nM | koff [1]: 0.0035 s⁻¹ | kon [1]: 932000 M⁻¹ s⁻¹ | absorbance at 450 nm [2]: > 3 A450 | absorbance at 450 nm [3]: > 3 A450 | absorbance at 450 nm [4]: > 3 A450 | absorbance at 450 nm [5]: > 3 A450 | absorbance at 450 nm [6]: > 3 A450 | absorbance at 450 nm [7]: > 3 A450
B1: mAb 0061 HC2; LC2 (antibody, V domains shown)
VH: EVKLLESGGGLVQPGGSLKLSCAASGFDFSRYWMTWVRQAPGKGLEWIGEINPDSSTINYNPSLKDKFIISRDNAKNTLYLQMSEVRSEDTALYYCASGVFTSWGQGTLVTVSA
VL: DVVMTQTPLSLPVSLGDQASISCRSSQSLVHRNGNTYFHWALQKPGQSPKLLIYKVSNRFSGVPDRFSGSGSGTDFTLKISRVEAEDLGVYFCSQSTHVPYTFGGGTKLEIKR
notes: also called 0197-0000-0061; 0012HC.T60N + 0012LC.C36A
